Data on 20 sequences can be found in the DeepSol protein solubility set.

The nature of this data set: soluble on expression in E. coli; label from the status in PepcDB or PDB records.
Turning to “MGWPFIGETISFFKPHRSDSIGTFLQQRVSRYGKVFKSNICGGKAVVSCDQELNMFILQNEGKLFTSDYPKAMHDILGKYSLLLATGEIHRKLKNVIISFINLTKSKPDFLHCAENLSISILKSWKNCREVEFHKEVKIFTLSVMVNQLLSIKPEDPARLYVLQDFLSYMKGFISLPIPLPGTGYTNAIKVRSNRNIHQNAIIEDMNNAIREEDFLDSIISNEDEEHAAIRAKKGDGELLNWEDYQKMEFTQCVISEALRCGNIVKTVHRKATHDIKFNEYVIPKGWKVFPIFTAVHLDPSLHENPFEFNPMRWTKTTAFGGGVRVCPGGELGKLQIAFFLHHLVLSYRWKIKSDEMPIAHPYVEFKRGMLLEIEPTKFLED”, the “soluble on expression in E. coli” value is given as “soluble”.

Consider “MGYEGIIVVDVRDAEAYKECHIPTAISIPGNKINEDTTKRLSKEKVIITYCWGPACNGATKAAAKFAQLGFRVKELIGGIEYWRKENGEVEGTLGAKADLFWNMKKESLEHHHHHH”, for which the “soluble on expression in E. coli” value was “not soluble”.

“MGYIEDMRNLVGNHPLILIGSHAIILNEKDEVLLQLRTDFNRWGIIGGALEYNETLEDALKREVFEETGLIIKNPELFRTYSGPDFFQIYPNGDQVHGVLVVYICREFHGELVCDHTESKELRFFSLDELPNNLPPVIEKIITDYLKK”: the “soluble on expression in E. coli” value is listed as “not soluble”.

For “MHALHFSASDKAALYREVLPQIESVVADETDWVANLANTAAVLKEAFGWFWVGFYLVDTRSDELVLAPFQGPLACTRIPFGRGVCGQAWAKGGTVVVGDVDAHPDHIACSSLSRSEIVVPLFSDGRCIGVLDADSEHLAQFDETDALYLGELAKILEKRFEASRQAV”, the “soluble on expression in E. coli” value is listed as “soluble”. With “MHATDQTFQILLSQLLEKVEDRCPECGSEQYVWQQKNKDGTERCAPTCWSCGYKMLKKHEQQANQQRSQESFMARTQKFFHQGSLIADDALRQCRLTNYQTTELETRQAKERALAAVSAIVEGKPIHVIFSGKPGVGKSHLAISILVEVLERSAYQKYCLFVSYSELLEKLKMSMNESAKSQAKAQAYITRMKKADVLVLDDLGAELGIKNKVSTDFNNDILNRILEARQNKATIFTTNFSGKQLVEAYGTRIISRLMKHANGYVFQYKDTTDKRMRSVKLEHHHHHH” the entry was “not soluble”. Consider “MHCNDGGPATLGLFSDSDLQQPARVEVLGPQSRVLRGFALPWVEALLPQLDAVLAAAPFRQMQTPGGFTMSVGLSSCGQLGWTTDRSGYRYSPIDPQSQRPWPALPKVFQELAEAAAEAAGFPGFAPDSCLINCYRPGAKMSLHQDKNERDYSAPIVSLSLGLPAIFLFGGRQRSDKSQRVALLHGDVVVWGGVDRLRYHGVLALKDGHHPLLGQQRINLTLRRAGLEHHHHHH”, for which the “soluble on expression in E. coli” value is “not soluble”.

Turning to “MHDKMHDTGTRSDMARFNPLHGNPLKSRADVRRALDDSFAPLLPYFSPGGARVALSGTAAHFDRAAADLEGFARPLWGIAPLALSGDTFAHWPLLAKGIANGTDPAHPDYWGDVRQKDQRLVELAAIGFALRLAPQHLWEPLSDAQKENVSRYLLAARERNYADNNWKFFRVMVDMALDHLGIGFDRSLTETFQKELDDFYIADGWYRDGNYRRIDHYIAFAMHFYGLIYARLSKPDDAYAKRYRERARLFAGDFASWFDEDGGALAFGRSMTYRFACGGFWAGLAFADEEALPWGEIKGLYLSHLRWWAEKPIADRDGVLSIGYAYPQLTMSESYNSAGSPYWAFKAFLPLALPESHPFWQAQETLPKVSTNPHPLVHPGMVMMRAKGNVTALSSGQENLAMRGGPEKYAKFAYSSRYGFGVEVDERGFRTNGFDNILAFSDDGLHYRVRETNRKVLMAGANLRATWKPFPDVTVETTLVAAENWHVRLHRITSARALAVAEGGFAINRNDGERDVVSETGGKATADCGTDISAIVDLGSTISRHGVALKALPNTNLINAKTTVPQLRGEIPAGETMLACAVFAGVAGAESERALAAVPACPDLEALDRLFADRGVPVSAMAGEPQLEHHHHHH”, the “soluble on expression in E. coli” value is recorded as “not soluble”. For “MHDLDRNEDRLRGTYDFPFEFHHIDHNHPRYVMSYHWHVEYEIIRILDGSLTVTLDEKSFTATAGDIIFVHSGILHSGIPEDCVYQCIVFDGNTFLKNNSVCAGYMQKIIHQEILIYHHFTPKYVDICATVNSLFDALWKKPSGYELSVLGQFYHFFGLIFGNHYYLESVTRARRDYKRILQLKQVLDFIEHNYASPLTLQQLSASVSMSPKYFCRFFSEMTHQTPMDYLNHQRIEQACYQLSTTDDSITEIAYRNGFNDLSYFIRTFKKYKGITPGKYKKA”, the “soluble on expression in E. coli” value is “not soluble”. With “MHDTEKSDSGIVAEKPTNKAGLLAAEWAEPRPGTKGNAEQQRMHRTQGRARMTQSLDRVRTAARLRKKDRFTALFHHINVDTLRAAFFALRRKAAPGVDGMTWEDYEEDLEPRLADLHKRVQRGAYRPQPSRRTYIPKADGKQRPLAIAALEDKIVQGANRHRAQRHLRRRLLWLFLRVSARQRTTAAALEHHHHHH” the entry was “soluble”; with “MHDVPPFSGAKLALFYGDHLVVYKRDEKPGIPFPGYWDFPGGGREGLETPAECALRELEEEFSIRLEEPRIEWQRQYPSTSGSAPFAYFLVARLEDREFEAIRFGDEGQYWRLMEVDAYLAHAMAVPYLQSRLGDYLRERRRIGE”, “soluble”. As for “MHEQLNSRVETCYLQAETFFKRTFKRPVVSFQLRGQKAGVAHLHENLLRFNPQLYQENAEDFLRQTVPHEVAHLVAHQLFGGGIQPHGEEWQLIMRGVYELPPNRCHTYAVQRRSVIRYIYRCPCPDSDFPFTSQRHSMVRKGRRYLCRRCREPLMFSGETRTELEHHHHHH”, the entry is “not soluble”; as for “MHFELNQATHCKNHVVIHNELSPGIILNIACRKGSIDDKPTRFHKLNFKDPSYVIEFEDNYPNDETWYCLLSHGTRPKYWYDIQVYRQGIQPKCNQLRLWIARMDGIWFTRRYESPPGHVLDWKI”, “not soluble”; as for “MHFSRIVSGLACSIILNISVSNANAAQVENYTQYLPDGANLALMVQKIGASTPAIDYHAQQMALPASTQKVLTALAALLQLGPDFRFNTTLESHGTITDGVLRGNLIARFGGDPTLTRQQLRNMVATLRKAGVKQIAGDVVIDTSVFASHDKAPGWPWNDMTQCFSAPPAAAIVDRNCFSVSLYSAPNPGDTAFIRVASYYPVQMFSEVRTLAKGSPDAQYCELDVVPGELNRFTLTGCLTQRSEPLPLAFAVQNGASYAGAILKDELKKADIQIDGNLRRQTIPSPAGNVLAQTQSAPLHDLLKIMLKKSDNMIADTVFRTIGHQRFGVPGTWRSGADAVRQILRQKAGVDLGNSIVVDGSGLSRHNLISPATMMQVLQYIAQNDQELNFISMLPLAGYDGTLRYRGGLHEAGVNGKVSAKTGALQGVYNLAGFITTASGQRMAFVQFLSGYAVPPEDQKNRRAPLVRFESRLYKDIYQNN”, “not soluble”. As for “MHHHHHHGSTKTNSEILEQLKQASDGLLFMSESEYPFEVFLWEGSAPPVTHEIVLQQTGHGQDAPFKVVDIDSFFSRATTPQDWYEDEENAVVAKFQKLLEVIKSNLKNPQVYRLGEVELDVYVIGETPAGNLAGISTKVVET”, the entry is “soluble”; as for “MHHHHHHMSGGLTPDQAIDAIRGTGGAQPGCRALHAKGTLYRGTFTATRDAVMLSAAPHLDGSTVPALIRFSNGSGNPKQRDGAPGVRGMAVKFTLPDGSTTDVSAQTARLLVSSTPEGFIDLLKAMRPGLTTPLRLATHLLTHPRLLGALPLLREANRIPASYATTEYHGLHAFRWIAADGSARFVRYHLVPTAAEEYLSASDARGKDPDFLTDELAARLQDGPVRFDFRVQIAGPTDSTVDPSSAWQSTQIVTVGTVTITGPDTEREHGGDIVVFDPMRVTDGIEPSDDPVLRFRTLVYSASVKLRTGVDRGAQAPPV”, “soluble”; as for “MHHHHHHSENTFIFPATFMWGTSTSSYQIEGGTDEGGRTPSIWDTFCQIPGKVIGGDCGDVACDHFHHFKEDVQLMKQLGFLHYRFSVAWPRIMPAAGIINEEGLLFYEHLLDEIELAGLIPMLTLYHWDLPQWIEDEGGWTQRETIQHFKTYASVIMDRFGERINWWNTINEPYCASILGYGTGEHAPGHENWREAFTAAHHILMCHGIASNLHKEKGLTGKIGITLNMEHVDAASERPEDVAAAIRRDGFINRWFAEPLFNGKYPEDMVEWYGTYLNGLDFVQPGDMELIQQPGDFLGINYYTRSIIRSTNDASLLQVEQVHMEEPVTDMGWEIHPESFYKLLTRIEKDFSKGLPILITENGAAMRDELVNGQIEDTGRQRYIEEHLKACHRFIEEGGQLKGYFVWSFLDNFEWAWGYSKRFGIVHINYETQERTPKQSALWFKQMMAKNGF”, “soluble”. As to “MHHHHHHSSGLVPRGSGMKETAAAKFERQHMDSPDLGTDDDDKAMAGTPSKPAEPIGPVFTKLKPWQIPKRDWFDKDFLFGASTSAYQIEGAWNEDGKGPSTWDHFCHTYPERISDMTNGDVAANSYHLYEEDVKALKDMGMKVYRFSISWSRILPDGTGKVNQAGIDYYNKLINSLIDNDIVPYVTIWHWDTPQALEDKYGGFLNRQIVDDYKQFAEVCFKNFGDRVKNWFTFNEPHTYCCFSYGEGIHAPGRCSPGMDCAVPEGDSLREPYTAGHHILLAHAEAVQLFKARYNMHGDSKIGMAFDVMGYEPYQDSFLDDQARERSIDYNMGWFLEPVVRGDYPFSMRSLIGDRLPMFTKEEQEKLASSCDIMGLNYYTSRFSKHVDMSPDFTPTLNTDDAYASSETTGSDGNDIGPITGTYWIYMYPKGLTDLLLIMKEKYGNPPVFITENGIADVEGDESMPDPLDDWKRLDYLQRHISAVKDAIDQGADVRGHFTWGLIDNFEWSLGYSSRFGLVYIDKNDGNKRKLKKSAKWFSKFNSVPKPLLKTTNNNATMTAASVSV”, the “soluble on expression in E. coli” value was “soluble”. As for “MHHHHHHSSGRENLYFQGSTKGDINQYYTLENTIGRGSWGEVKIAVQKGTRIRRAAKKIPKYFVEDVDRFKQEIEIMKSLDHPNIIRLYETFEDNTDIYLVMELCTGGELFERVVHKRVFRESDAARIMKDVLSAVAYCHKLNVAHRDLKPENFLFLTDSPDSPLKLIDFGLAARFKPGKMMRTKVGTPYYVSPQVLEGLYGPECDEWSAGVMMYVLLCGYPPFSAPTDSEVMLKIREGTFTFPEKDWLNVSPQAESLIRRLLTKSPKQRITSLQALEHEWFEKQLSSSPRNLL”, the entry is “soluble”. Turning to “MHHHHHHSSGRENLYFQGTLSALAVDLGGTNLRVAIVSMKGEIVKKYTQFNPKTYEERINLILQMCVEAAAEAVKLNCRILGVGISTGGRVNPREGIVLHSTKLIQEWNSVDLRTPLSDTLHLPVWVDNDGNCAALAERKFGQGKGLENFVTLITGTGIGGGIIHQHELIHGSSFCAAELGHLVVSLDGPDCSCGSHGCIEAYASGMALQREAKKLHDEDLLLVEGMSVPKDEAVGALHLIQAAKLGNAKAQSILRTAGTALGLGVVNILHTMNPSLVILSGVLASHYIHIVKDVIRQQALSSVQDVDVVVSDLVDPALLGAASMVLDYTTRR”, the “soluble on expression in E. coli” value is given as “soluble”. As to “MHHHHHHSSGVDLGTENLYFQSMARLPKLAVFDLDYTLWPFWVDTHVDPPFHKSSDGTVRDRRGQDVRLYPEVPEVLKRLQSLGVPGAAASRTSEIEGANQLLELFDLFRYFVHREIYPGSKITHFERLQQKTGIPFSQMIFFDDERRNIVDVSKLGVTCIHIQNGMNLQTLSQGLETFAKAQTGPL”, the “soluble on expression in E. coli” value was “soluble”.
